Reference: patent publication US20250269025A1 (AVENCELL THERAPEUTICS, published 2025)
No end group written: not given here.

Columns and labels:
[1] = target: T1, CD123 on CD123 positive AML cells (Oci-AML3, Molm-13, MV4-11, primary AML cells) (human, UniProt P26951 19-378); test: cell-based or functional assay
human CD123-Fc = target: T2, human CD123-Fc (human, UniProt P26951 19-305, limits assumed); test: SPR, Biacore X100, human CD123-Fc on CM5 chip, 1:1 model; KD CD123 (first number of the cell)
T2 construct: Coupled to a CM5 sensor chip; also called soluble recombinant CD123; not shown: Fc part
T2 sequence (looked up): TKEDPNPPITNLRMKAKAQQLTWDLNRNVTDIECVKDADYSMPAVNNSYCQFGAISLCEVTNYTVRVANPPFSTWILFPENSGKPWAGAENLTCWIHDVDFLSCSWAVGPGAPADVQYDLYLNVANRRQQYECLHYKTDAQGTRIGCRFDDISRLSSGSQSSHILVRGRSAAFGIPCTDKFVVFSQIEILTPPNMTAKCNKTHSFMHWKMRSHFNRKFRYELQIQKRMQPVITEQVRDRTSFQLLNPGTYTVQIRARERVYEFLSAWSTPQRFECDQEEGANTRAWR
Method: Binding of different variants of the targeting module according to the invention was analyzed by SPR measurements using human CD123-Fc coupled to a CM5 sensor chip on a Biacore X100 device (FIG. 2). Targeting modules were purified monomer except for the targeting module according to SEQ ID No. 8. […] For data fitting and KD calculation a 1:1 binding model was applied.

[2] = target: T1, CD123 on CD123 positive AML cells …; test: cell-based or functional assay; remark: listed apart in the source
[3] = target: T1, CD123 on CD123 positive AML cells …; test: cell-based or functional assay; remark: listed apart in the source
[4] = target: T1, CD123 on CD123 positive AML cells …; test: cell-based or functional assay; remark: listed apart in the source
[5] = target: T1, CD123 on CD123 positive AML cells …; test: cellular binding assay per table caption, Molm-13 cells
[6] = target: T3, La epitope 5B9 (SEQ ID No. 28) fused to human Fc domain (human, also: fused to human Fc domain, order, isotype, linker not given here); test: SPR, Biacore X100, La epitope 5B9-human Fc on CM5 chip; KD 5B9 (second number of the cell)
T3 construct: Coupled to a CM5 sensor chip; not shown: human Fc domain
T3 chain: KPLPEVTDEY
Method: Furthermore, binding of different variants of the targeting module according to the invention was analyzed using the La epitope 5B9 (SEQ ID No. 28) fused to human Fc domain which was coupled to a CM5 sensor chip on a Biacore X100 device (FIG. 3). The targeting modules were purified monomers. The targeting modules were concentrated between 2.47 to 200 nM and measured in technical duplicates. For data fitting and KD calculation a two-state-reaction binding model was applied.

[7] = target: T1, CD123 on CD123 positive AML cells …; test: cellular binding assay per table caption, Oci-AML3 cells
[8] = target: T1, CD123 on CD123 positive AML cells …; test: flow cytometry on Oci-AML3 cells, anti-His-PE detection. Half-maximal binding from a four-parameter fit of gMFI. Unit taken from the concentration axis [M]
Method: Cellular binding of CD123-binding targeting modules (TM) was tested on CD123 positive target cell lines Oci-AML3 and Molm-13: A) SEQ ID No. 5 to Oci-AML3, B) SEQ ID No. 9 to Oci-AML3, C) SEQ ID No. 4 to Molm-13 and D) SEQ ID No. 6 to Molm-13. The affinity of TMs was analyzed by flow cytometry. The TMs were titrated on an AML cell lines and then detected by a mouse anti-His-tag antibody conjugated to phycoerythrin.
Different concentrations of R-TM123 were incubated with cells, washed and quantified. A dose-response curve was obtained when the geometric mean fluorescence (MFI) was plotted against the TM concentration.

B1: targeting module according to SEQ ID No. 5 (bispecific antibody)
chain: EVQLQQSGPELVKPGASVKMSCKASGYTFTDYYMKWVKQSHGKSLEWIGDIIPSNGATFYNQKFKGKATLTVDRSSSTAYMHLNSLTSEDSAVYYCTRSHLLRASWFAYWGQGTLVTVSAASGGGGSGGGGSGGGGSDFVMTQSPSSLTVTAGEKVTMSCKSSQSLLNSGNQKNYLTWYLQKPGQPPKLLIYWASTRESGVPDRFTGSGSGTDFTLTISSVQAEDLAVYYCQNDYSYPYTFGGGTKLEIKAAARGDIVMTQSPDSLAVSLGERATINCKSSQSLLNSRTPKNYLAWYQQKPGQPPKLLIYWASTRKSGVPDRFSGSGSGTDFTLTISSLQAEDVAVYYCKQSYNLLTFGGGTKVEIKGGGGSGGGGSGASAAGGGGSGGGGSQVQLVQSGAEVKKPGASVKVSCKASGYTFTHYYIYWVRQAPGQGLEWMGGVNPSNGGTHFNEKFKSRVTMTRDTSISTAYMELSRLRSDDTAVYYCARSEYDYGLGFAYWGQGTLVTVSSGGGGSHHHHHHHH
notes: also called R-TM123; muCD123 + 5B9-VL-VH
EC50 of R-TM123 for GM-CSF release by RevCAR-T, co-culture with MOLM-13 [1]: 37.7 pM
EC50 of R-TM123 for Granzyme B release by RevCAR-T, co-culture with MOLM-13 [1]: 4.4 pM
EC50 of R-TM123 for IFN-γ release by RevCAR-T, co-culture with MOLM-13 [1]: 19.3 pM
EC50 of R-TM123 for IL-2 release by RevCAR-T, co-culture with MOLM-13 [1]: 63.9 pM
EC50 of R-TM123 for IL-4 release by RevCAR-T, co-culture with MOLM-13 [1]: 54.2 pM
EC50 of R-TM123 for Perforin release by RevCAR-T, co-culture with MOLM-13 [1]: 3.7 pM
EC50 of R-TM123 for TNF-α release by RevCAR-T, co-culture with MOLM-13 [1]: 53.9 pM
Kd (human CD123-Fc): 23 pM
EC50 of R-TM123 for RevCAR-T mediated lysis of MOLM-13, Donor #1 [2]: 1.3 pM
EC50 of R-TM123 for RevCAR-T mediated lysis of MOLM-13, Donor #2 [2]: 2.2 pM
EC50 of R-TM123 for RevCAR-T mediated lysis of MOLM-13, Donor #3 [2]: 2.6 pM
EC50 of R-TM123 for RevCAR-T mediated lysis of MOLM-13, Donor #4 [2]: 1 pM
EC50 of R-TM123 for RevCAR-T mediated lysis of MOLM-13, Mean [2]: 1.8 pM
EC50 of R-TM123 for RevCAR-T mediated lysis of MV4-11, Donor #1 [2]: 2.8 pM
EC50 of R-TM123 for RevCAR-T mediated lysis of MV4-11, Donor #2 [2]: 4.2 pM
EC50 of R-TM123 for RevCAR-T mediated lysis of MV4-11, Donor #3 [2]: 3.8 pM
EC50 of R-TM123 for RevCAR-T mediated lysis of MV4-11, Donor #4 [2]: 3.3 pM
EC50 of R-TM123 for RevCAR-T mediated lysis of MV4-11, Mean [2]: 3.5 pM
EC50 of R-TM123 for RevCAR-T mediated lysis of OCI-AML3, Donor #1 [2]: 8.6 pM
EC50 of R-TM123 for RevCAR-T mediated lysis of OCI-AML3, Donor #2 [2]: 6.7 pM
EC50 of R-TM123 for RevCAR-T mediated lysis of OCI-AML3, Donor #3 [2]: 4.9 pM
EC50 of R-TM123 for RevCAR-T mediated lysis of OCI-AML3, Donor #4 [2]: 2.7 pM
EC50 of R-TM123 for RevCAR-T mediated lysis of OCI-AML3, Mean [2]: 5.7 pM
EC50 of R-TM123 for CD25 expression on CD4+ RevCAR-T, co-culture with MOLM-13, Donor #1 [3]: 2.6 pM
EC50 of R-TM123 for CD25 expression on CD4+ RevCAR-T, co-culture with MOLM-13, Donor #2 [3]: 2.2 pM
EC50 of R-TM123 for CD25 expression on CD4+ RevCAR-T, co-culture with MOLM-13, Donor #3 [3]: 2.3 pM
EC50 of R-TM123 for CD25 expression on CD4+ RevCAR-T, co-culture with MOLM-13, Donor #4 [3]: 1.2 pM
EC50 of R-TM123 for CD25 expression on CD4+ RevCAR-T, co-culture with MOLM-13, Mean [3]: 2.1 pM
EC50 of R-TM123 for CD25 expression on CD4+ RevCAR-T, co-culture with MV4-11, Donor #1 [3]: 8 pM
EC50 of R-TM123 for CD25 expression on CD4+ RevCAR-T, co-culture with MV4-11, Donor #2 [3]: 6.5 pM
EC50 of R-TM123 for CD25 expression on CD4+ RevCAR-T, co-culture with MV4-11, Donor #3 [3]: 10.2 pM
EC50 of R-TM123 for CD25 expression on CD4+ RevCAR-T, co-culture with MV4-11, Donor #4 [3]: 8.9 pM
EC50 of R-TM123 for CD25 expression on CD4+ RevCAR-T, co-culture with MV4-11, Mean [3]: 8.4 pM
EC50 of R-TM123 for CD25 expression on CD4+ RevCAR-T, co-culture with OCI-AML3, Donor #1 [3]: 2.9 pM
EC50 of R-TM123 for CD25 expression on CD4+ RevCAR-T, co-culture with OCI-AML3, Donor #2 [3]: 3 pM
EC50 of R-TM123 for CD25 expression on CD4+ RevCAR-T, co-culture with OCI-AML3, Donor #3 [3]: 2.3 pM
EC50 of R-TM123 for CD25 expression on CD4+ RevCAR-T, co-culture with OCI-AML3, Donor #4 [3]: 2.4 pM
EC50 of R-TM123 for CD25 expression on CD4+ RevCAR-T, co-culture with OCI-AML3, Mean [3]: 2.6 pM
EC50 of R-TM123 for CD25 expression on CD8+ RevCAR-T, co-culture with MOLM-13, Donor #1 [3]: 5.2 pM
EC50 of R-TM123 for CD25 expression on CD8+ RevCAR-T, co-culture with MOLM-13, Donor #2 [3]: 4.3 pM
EC50 of R-TM123 for CD25 expression on CD8+ RevCAR-T, co-culture with MOLM-13, Donor #3 [3]: 6 pM
EC50 of R-TM123 for CD25 expression on CD8+ RevCAR-T, co-culture with MOLM-13, Donor #4 [3]: 2.1 pM
EC50 of R-TM123 for CD25 expression on CD8+ RevCAR-T, co-culture with MOLM-13, Mean [3]: 4.4 pM
EC50 of R-TM123 for CD25 expression on CD8+ RevCAR-T, co-culture with MV4-11, Donor #1 [3]: 6.7 pM
EC50 of R-TM123 for CD25 expression on CD8+ RevCAR-T, co-culture with MV4-11, Donor #2 [3]: 4.3 pM
EC50 of R-TM123 for CD25 expression on CD8+ RevCAR-T, co-culture with MV4-11, Donor #3 [3]: 7.2 pM
EC50 of R-TM123 for CD25 expression on CD8+ RevCAR-T, co-culture with MV4-11, Donor #4 [3]: 5.1 pM
EC50 of R-TM123 for CD25 expression on CD8+ RevCAR-T, co-culture with MV4-11, Mean [3]: 5.8 pM
EC50 of R-TM123 for CD25 expression on CD8+ RevCAR-T, co-culture with OCI-AML3, Donor #1 [3]: 8.7 pM
EC50 of R-TM123 for CD25 expression on CD8+ RevCAR-T, co-culture with OCI-AML3, Donor #2 [3]: 15.7 pM
EC50 of R-TM123 for CD25 expression on CD8+ RevCAR-T, co-culture with OCI-AML3, Donor #3 [3]: 14.6 pM
EC50 of R-TM123 for CD25 expression on CD8+ RevCAR-T, co-culture with OCI-AML3, Donor #4 [3]: 4.8 pM
EC50 of R-TM123 for CD25 expression on CD8+ RevCAR-T, co-culture with OCI-AML3, Mean [3]: 11 pM
EC50 of R-TM123 for lysis of primary AML cells AML 1 by RevCAR-T, Donor #2 [4]: 3.4 pM
EC50 of R-TM123 for lysis of primary AML cells AML 1 by RevCAR-T, Donor #3 [4]: 2.9 pM
EC50 of R-TM123 for lysis of primary AML cells AML 1 by RevCAR-T, Donor #4 [4]: 1.8 pM
EC50 of R-TM123 for lysis of primary AML cells AML 1 by RevCAR-T, Mean [4]: 2.7 pM
EC50 of R-TM123 for lysis of primary AML cells AML 3 by RevCAR-T, Donor #2 [4]: 3 pM
EC50 of R-TM123 for lysis of primary AML cells AML 3 by RevCAR-T, Donor #3 [4]: 3.8 pM
EC50 of R-TM123 for lysis of primary AML cells AML 3 by RevCAR-T, Donor #4 [4]: 2.2 pM
EC50 of R-TM123 for lysis of primary AML cells AML 3 by RevCAR-T, Mean [4]: 3 pM
EC50 of R-TM123 for lysis of primary AML cells AML 4 by RevCAR-T, Donor #2 [4]: 1.7 pM
EC50 of R-TM123 for lysis of primary AML cells AML 4 by RevCAR-T, Donor #3 [4]: 3.1 pM
EC50 of R-TM123 for lysis of primary AML cells AML 4 by RevCAR-T, Donor #4 [4]: 1.8 pM
EC50 of R-TM123 for lysis of primary AML cells AML 4 by RevCAR-T, Mean [4]: 2.2 pM
EC50 of R-TM123 for lysis of primary AML cells AML 5 by RevCAR-T, Donor #2 [4]: 2.2 pM
EC50 of R-TM123 for lysis of primary AML cells AML 5 by RevCAR-T, Donor #3 [4]: 3.6 pM
EC50 of R-TM123 for lysis of primary AML cells AML 5 by RevCAR-T, Donor #4 [4]: 2.1 pM
EC50 of R-TM123 for lysis of primary AML cells AML 5 by RevCAR-T, Mean [4]: 2.6 pM
EC50 [5]: 1.2 pM
Kd [6]: 3400 pM
EC50 [7]: 3 pM
Kd [8]: 2920 pM
